# Reference: patent US20230348603A1 (VERSEAU THERAPEUTICS, published 2023)
# T1: Human VSIG4-L-His (human, UniProt Q9Y279 20-283)
# T1 construct: long isoform ECD with His tag; also called hVSIG4-L
# T1 sequence: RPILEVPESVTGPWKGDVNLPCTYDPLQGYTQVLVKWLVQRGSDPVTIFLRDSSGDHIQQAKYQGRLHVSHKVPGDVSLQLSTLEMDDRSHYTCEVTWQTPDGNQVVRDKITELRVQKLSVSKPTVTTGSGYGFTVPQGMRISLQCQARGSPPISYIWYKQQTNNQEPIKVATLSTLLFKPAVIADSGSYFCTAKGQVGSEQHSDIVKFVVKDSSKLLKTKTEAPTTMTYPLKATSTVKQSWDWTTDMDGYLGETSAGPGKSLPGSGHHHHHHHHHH
# T2: Cynomolgus Monkey VSIG4-L-His (cynomolgus monkey)
# T2 construct: ECD with His tag; also called cyVSIG4-L; cyno VSIG4-L-His
# T2 chain: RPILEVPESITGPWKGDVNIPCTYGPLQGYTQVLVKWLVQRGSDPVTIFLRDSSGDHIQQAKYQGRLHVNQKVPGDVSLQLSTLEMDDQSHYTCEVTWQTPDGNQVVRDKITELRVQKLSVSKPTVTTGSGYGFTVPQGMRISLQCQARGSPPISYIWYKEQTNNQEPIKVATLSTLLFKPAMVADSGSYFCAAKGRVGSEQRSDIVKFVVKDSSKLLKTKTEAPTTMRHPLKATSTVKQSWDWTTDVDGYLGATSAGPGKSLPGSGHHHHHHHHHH
# T3: Mouse VSIG4-His (mouse)
# T3 construct: ECD with His tag; also called mVSIG4
# T3 chain: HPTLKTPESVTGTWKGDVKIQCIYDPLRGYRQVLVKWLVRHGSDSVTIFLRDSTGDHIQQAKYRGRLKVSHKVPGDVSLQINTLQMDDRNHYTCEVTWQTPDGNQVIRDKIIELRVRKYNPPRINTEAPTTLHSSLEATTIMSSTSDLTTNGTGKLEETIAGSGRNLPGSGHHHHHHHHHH
# B1: 12A12 mouse/human chimeric IgG4 (S228P) kappa (antibody, V domains shown)
# VH: QVQMKQSGAELAKPGASVKMSCKASGYTFTNYWMHWVKQRPGQGLEWIGYINPSTGYTDYNQNFKDRATLTADKSSSTAYMQLSSLTSEDSAVYYCIRGSDYYGRDYWGQGTTLTVSS
# VL: DIQMTQTTSSLSASLGDRVTISCRASQDISNYLNWYQQKPDGTLKLLIYYTSRLHSGVPSRFSGSGSGTDYSLTISNLEQEDIATYFCRQGNTLPWTFGGGTKLEIKR
# Experiments:
# [1] = target: T1, Human VSIG4-L-His; test: SPR (FJB)
# [2] = target: T2, Cynomolgus Monkey VSIG4-L-His; test: SPR (FJB)
# [3] = target: T4, Human VSIG4-L-Fc (human); test: ELISA, IgG 50 nM on coated antigen;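 also: Mouse-human chimeric IgG4 antibodies incubated 1 h on plate-coated VSIG4 proteins, bound IgG detected with HRP-labelled anti-human IgG, irrelevant antibody and protein as specificity controls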
# T4 construct: also called hVSIG4-L-Fc; hVSIG4-L
# Target sequence in this assay (chain, as listed by the source limits assumed): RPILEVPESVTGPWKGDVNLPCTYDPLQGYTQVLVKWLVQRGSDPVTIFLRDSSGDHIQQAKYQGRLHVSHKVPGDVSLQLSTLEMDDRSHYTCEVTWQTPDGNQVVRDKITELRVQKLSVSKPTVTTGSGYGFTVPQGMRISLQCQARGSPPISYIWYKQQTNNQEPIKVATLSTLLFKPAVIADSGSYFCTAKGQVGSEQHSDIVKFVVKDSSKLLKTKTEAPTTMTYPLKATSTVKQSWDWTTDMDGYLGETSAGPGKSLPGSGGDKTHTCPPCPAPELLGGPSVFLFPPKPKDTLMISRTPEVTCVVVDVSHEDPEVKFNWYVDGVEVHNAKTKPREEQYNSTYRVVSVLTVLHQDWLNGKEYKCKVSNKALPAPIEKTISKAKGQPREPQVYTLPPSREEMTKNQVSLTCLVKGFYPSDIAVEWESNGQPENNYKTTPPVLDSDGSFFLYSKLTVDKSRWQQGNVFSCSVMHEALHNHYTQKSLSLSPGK
# [4] = target: T5, Human VSIG4-S-Fc (human); test: ELISA, IgG 50 nM on coated antigen;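 also: Mouse-human chimeric IgG4 antibodies incubated 1 h on plate-coated VSIG4 proteins, bound IgG detected with HRP-labelled anti-human IgG, irrelevant antibody and protein as specificity controls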
# T5 construct: short isoform ECD fused to human Fc1; also called hVSIG4-S
# [5] = target: T2, Cynomolgus Monkey VSIG4-L-His; test: ELISA, IgG 50 nM on coated antigen;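 also: Mouse-human chimeric IgG4 antibodies incubated 1 h on plate-coated VSIG4 proteins, bound IgG detected with HRP-labelled anti-human IgG, irrelevant antibody and protein as specificity controls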
# [6] = target: T3, Mouse VSIG4-His; test: ELISA, IgG 50 nM on coated antigen;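 also: Mouse-human chimeric IgG4 antibodies incubated 1 h on plate-coated VSIG4 proteins, bound IgG detected with HRP-labelled anti-human IgG, irrelevant antibody and protein as specificity controls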
# [7] = target: T4, Human VSIG4-L-Fc; test: BLI binning on hVSIG4-L-Fc, competitor 13H11 first;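 also: normalized to binding of second antibody without first competitor antibody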
# Description: Epitopic diversity of functional antibodies was further assessed by antibody cross-blocking experiments, performed on a ForteBio Octet® Red384 system. […] All assay steps occurred at 30° C. with an acquisition rate of 5.0 Hz.
# Binning results were calculated using ForteBio Data Analysis HT software. Antibody “a” and antibody “b” steps were defined, and the maximum binding calculation was averaged at the last 10% of the step duration. Once the matrix was generated, the antibody “b” binding signal in the absence of any antibody “a” was used to normalize the maximum binding of the competitor antibodies. Hierarchical clustering was set with a similarity metric of Pearson and Lingang Criteria by Mean, and the normalized maximum binding nm shift is reported in Table 9 below.
# [8] = target: T4, Human VSIG4-L-Fc; test: BLI cross-blocking on hVSIG4-L-Fc, competitor 12A12 first
# [9] = target: T4, Human VSIG4-L-Fc; test: ligand competition ELISA (FJB), blocked ligand C3b
# T5 sequence (chain, as listed by the source limits assumed): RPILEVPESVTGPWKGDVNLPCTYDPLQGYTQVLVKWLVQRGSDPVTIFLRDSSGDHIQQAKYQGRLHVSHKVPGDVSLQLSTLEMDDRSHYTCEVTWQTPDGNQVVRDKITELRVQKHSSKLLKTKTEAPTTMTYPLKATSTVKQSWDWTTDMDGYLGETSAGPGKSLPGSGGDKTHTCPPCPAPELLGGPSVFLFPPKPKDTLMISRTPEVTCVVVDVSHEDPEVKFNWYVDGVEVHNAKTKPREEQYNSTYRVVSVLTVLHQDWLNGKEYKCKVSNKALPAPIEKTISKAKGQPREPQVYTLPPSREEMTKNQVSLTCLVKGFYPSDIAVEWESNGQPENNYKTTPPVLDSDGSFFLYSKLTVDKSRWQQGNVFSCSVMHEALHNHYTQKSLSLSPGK
binder,measurement,setting,value
B1,Kd,[1],8.6 nM
same,Kd,[2],6.8 nM
same,ELISA OD450,[3],4.45 OD450
same,ELISA OD450,[4],4.18 OD450
same,ELISA OD450,[5],4.4 OD450
same,ELISA OD450,[6],0.054 OD450
same,normalized maximum binding nm shift,[7],0.74 normalized
same,binding signal (nm shift),[8],0.13 nm
same,IC50,[9],0.9 nM
